Test results as given in the supplement of paper PMC10065799, “High-throughput profiling of sequence recognition by tyrosine kinases and SH2 domains using bacterial peptide display” (eLife, 2023).

Key:
SHP2-C SH2 = assay: SH2 binding enrichment of the phosphorylated peptide, bacterial display (enrichment ratio); higher = better substrate or ligand; peptides without Tyr show the background
Grb2 SH2 = Grb2 SH2 (UniProt P62993); assay: as above
c-Src SH2 = assay: as above
Fer (mouse) = assay: phosphorylation enrichment, bacterial display (enrichment ratio); higher = better substrate or ligand; peptides without Tyr show the background
Jak2 = Jak2 (UniProt O60674); assay: as above
MERTK = MERTK (UniProt Q12866); assay: as above
Chain of MERTK (Q12866 whole entry, looked up): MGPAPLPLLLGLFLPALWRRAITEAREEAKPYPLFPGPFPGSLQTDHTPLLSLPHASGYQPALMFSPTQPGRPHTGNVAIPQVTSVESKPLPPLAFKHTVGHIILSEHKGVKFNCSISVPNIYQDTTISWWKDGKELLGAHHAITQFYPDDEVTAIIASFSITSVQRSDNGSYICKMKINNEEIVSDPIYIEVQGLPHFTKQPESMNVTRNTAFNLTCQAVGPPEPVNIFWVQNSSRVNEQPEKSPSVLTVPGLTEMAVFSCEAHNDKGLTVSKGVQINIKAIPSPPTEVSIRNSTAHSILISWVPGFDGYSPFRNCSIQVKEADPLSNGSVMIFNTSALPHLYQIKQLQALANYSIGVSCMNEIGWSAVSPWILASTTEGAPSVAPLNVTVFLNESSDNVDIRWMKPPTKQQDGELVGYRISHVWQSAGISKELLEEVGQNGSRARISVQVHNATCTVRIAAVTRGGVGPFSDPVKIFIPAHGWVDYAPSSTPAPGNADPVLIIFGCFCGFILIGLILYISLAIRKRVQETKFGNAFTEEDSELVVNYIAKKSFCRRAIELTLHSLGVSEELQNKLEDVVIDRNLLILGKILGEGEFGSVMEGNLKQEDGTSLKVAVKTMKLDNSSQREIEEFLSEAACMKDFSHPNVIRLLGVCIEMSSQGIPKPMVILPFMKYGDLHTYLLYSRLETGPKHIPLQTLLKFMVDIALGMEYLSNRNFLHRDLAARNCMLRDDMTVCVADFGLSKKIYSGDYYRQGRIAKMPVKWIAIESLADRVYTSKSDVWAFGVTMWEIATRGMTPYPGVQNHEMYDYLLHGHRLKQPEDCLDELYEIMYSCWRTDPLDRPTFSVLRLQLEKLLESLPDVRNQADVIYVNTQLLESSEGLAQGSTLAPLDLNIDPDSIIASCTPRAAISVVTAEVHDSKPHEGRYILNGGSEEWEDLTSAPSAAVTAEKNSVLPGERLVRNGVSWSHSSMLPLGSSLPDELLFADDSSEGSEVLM

FGFR3 = FGFR3 (UniProt P22607); assay: as above
Chain of FGFR3 (P22607 whole entry, looked up): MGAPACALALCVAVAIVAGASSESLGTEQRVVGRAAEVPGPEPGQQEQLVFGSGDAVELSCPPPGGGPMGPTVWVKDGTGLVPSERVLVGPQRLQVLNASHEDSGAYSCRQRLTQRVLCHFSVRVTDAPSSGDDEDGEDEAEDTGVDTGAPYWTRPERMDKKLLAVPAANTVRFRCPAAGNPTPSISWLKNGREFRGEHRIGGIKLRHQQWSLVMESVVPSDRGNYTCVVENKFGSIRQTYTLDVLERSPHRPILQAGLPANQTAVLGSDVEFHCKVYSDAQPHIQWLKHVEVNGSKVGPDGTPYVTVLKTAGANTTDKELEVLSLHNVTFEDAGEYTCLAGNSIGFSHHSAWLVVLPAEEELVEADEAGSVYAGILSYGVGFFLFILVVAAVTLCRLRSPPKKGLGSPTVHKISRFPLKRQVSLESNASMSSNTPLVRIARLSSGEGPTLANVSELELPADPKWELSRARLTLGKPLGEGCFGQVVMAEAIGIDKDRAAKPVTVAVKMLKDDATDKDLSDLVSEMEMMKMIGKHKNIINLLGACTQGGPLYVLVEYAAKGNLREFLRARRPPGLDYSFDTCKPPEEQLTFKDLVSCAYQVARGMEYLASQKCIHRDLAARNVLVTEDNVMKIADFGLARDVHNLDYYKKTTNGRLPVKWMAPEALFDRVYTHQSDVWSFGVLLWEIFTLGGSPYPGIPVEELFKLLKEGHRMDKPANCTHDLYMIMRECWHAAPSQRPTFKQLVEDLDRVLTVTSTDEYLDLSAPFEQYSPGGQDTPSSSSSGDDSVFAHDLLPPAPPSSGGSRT

Hck = Hck (UniProt P08631); assay: as above
Fes = Fes (UniProt P07332); assay: as above
Chain of Fes (P07332 whole entry, looked up): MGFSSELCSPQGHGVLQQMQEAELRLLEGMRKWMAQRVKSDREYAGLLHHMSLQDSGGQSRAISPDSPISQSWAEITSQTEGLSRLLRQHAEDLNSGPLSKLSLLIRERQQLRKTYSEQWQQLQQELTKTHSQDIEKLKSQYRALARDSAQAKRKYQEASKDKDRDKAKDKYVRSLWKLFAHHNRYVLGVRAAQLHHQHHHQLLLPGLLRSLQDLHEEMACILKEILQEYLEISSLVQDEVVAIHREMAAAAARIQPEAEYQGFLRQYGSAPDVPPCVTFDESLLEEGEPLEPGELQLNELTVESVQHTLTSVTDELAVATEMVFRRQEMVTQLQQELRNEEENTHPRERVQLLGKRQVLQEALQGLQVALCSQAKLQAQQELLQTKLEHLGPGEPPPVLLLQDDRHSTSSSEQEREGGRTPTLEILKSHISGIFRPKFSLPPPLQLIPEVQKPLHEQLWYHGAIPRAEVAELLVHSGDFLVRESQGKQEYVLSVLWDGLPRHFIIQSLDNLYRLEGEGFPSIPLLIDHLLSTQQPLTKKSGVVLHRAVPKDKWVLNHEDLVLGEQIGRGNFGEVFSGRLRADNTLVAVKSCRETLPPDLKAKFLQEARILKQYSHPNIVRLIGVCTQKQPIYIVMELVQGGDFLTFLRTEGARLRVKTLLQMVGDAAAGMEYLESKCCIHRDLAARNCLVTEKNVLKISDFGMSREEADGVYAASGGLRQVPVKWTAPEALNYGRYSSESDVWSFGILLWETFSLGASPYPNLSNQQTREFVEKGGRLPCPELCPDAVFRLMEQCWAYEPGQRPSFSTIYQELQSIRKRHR

c-Abl (mouse) = assay: as above
c-Src = assay: as above
AncSZ = assay: as above
FGFR1 = FGFR1 (UniProt P11362); assay: as above
EPHB1 = EPHB1 (UniProt P54762); assay: as above
Chain of EPHB1 (P54762 whole entry, looked up): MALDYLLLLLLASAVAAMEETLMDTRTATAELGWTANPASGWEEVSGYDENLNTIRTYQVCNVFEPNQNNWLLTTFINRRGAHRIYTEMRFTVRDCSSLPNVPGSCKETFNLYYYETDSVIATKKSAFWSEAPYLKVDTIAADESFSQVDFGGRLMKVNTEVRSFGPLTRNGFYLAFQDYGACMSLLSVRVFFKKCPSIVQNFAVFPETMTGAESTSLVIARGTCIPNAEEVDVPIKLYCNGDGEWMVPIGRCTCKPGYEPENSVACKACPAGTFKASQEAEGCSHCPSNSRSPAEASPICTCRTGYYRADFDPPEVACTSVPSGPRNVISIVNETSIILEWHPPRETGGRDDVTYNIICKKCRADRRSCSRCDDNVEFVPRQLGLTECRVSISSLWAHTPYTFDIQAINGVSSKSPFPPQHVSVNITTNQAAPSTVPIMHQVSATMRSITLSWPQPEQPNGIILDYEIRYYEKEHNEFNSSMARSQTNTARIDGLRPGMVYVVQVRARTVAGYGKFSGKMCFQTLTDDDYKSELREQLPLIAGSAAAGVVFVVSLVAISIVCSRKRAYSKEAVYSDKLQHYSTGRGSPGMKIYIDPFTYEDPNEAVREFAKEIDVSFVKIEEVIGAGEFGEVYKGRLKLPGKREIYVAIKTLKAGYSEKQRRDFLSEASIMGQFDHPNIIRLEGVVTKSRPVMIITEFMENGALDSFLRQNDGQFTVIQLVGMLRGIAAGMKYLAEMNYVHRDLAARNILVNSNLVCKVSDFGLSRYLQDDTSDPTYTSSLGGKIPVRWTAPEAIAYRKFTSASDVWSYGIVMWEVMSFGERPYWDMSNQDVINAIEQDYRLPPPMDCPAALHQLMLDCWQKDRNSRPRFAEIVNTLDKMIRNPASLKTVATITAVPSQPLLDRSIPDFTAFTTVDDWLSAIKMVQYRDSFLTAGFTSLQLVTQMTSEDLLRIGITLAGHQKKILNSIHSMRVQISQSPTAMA

EPHB2 = EPHB2 (UniProt P29323); assay: as above
Chain of EPHB2 (P29323 whole entry, looked up): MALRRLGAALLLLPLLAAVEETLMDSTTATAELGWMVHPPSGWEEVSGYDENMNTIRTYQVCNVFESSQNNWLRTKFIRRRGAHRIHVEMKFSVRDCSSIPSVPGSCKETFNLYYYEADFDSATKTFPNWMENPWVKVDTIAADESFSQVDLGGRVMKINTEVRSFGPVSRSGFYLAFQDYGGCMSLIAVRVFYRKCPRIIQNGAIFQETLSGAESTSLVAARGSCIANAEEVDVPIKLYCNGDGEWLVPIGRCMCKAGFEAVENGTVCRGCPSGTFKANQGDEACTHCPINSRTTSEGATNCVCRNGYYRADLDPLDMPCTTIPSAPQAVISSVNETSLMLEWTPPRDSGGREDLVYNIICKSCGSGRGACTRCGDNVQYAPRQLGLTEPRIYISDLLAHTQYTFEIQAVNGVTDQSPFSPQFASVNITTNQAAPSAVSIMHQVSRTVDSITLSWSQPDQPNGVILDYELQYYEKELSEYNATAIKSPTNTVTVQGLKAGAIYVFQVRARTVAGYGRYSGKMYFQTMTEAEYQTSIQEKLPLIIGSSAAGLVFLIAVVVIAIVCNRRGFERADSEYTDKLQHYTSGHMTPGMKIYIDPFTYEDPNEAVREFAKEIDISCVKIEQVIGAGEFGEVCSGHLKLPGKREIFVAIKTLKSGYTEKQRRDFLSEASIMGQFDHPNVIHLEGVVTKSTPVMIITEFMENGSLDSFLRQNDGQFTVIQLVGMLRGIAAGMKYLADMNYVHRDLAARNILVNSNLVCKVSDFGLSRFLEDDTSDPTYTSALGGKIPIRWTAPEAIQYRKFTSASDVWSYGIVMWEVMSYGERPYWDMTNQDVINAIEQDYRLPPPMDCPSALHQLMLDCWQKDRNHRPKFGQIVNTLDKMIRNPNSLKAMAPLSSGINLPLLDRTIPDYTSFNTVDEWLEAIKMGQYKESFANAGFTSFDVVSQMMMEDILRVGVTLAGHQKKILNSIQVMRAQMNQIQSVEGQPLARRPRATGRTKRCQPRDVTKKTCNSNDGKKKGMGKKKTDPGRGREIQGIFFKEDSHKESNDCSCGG

Fyn = Fyn (UniProt P06241); assay: as above
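Throughout, for SH2 binding enrichment of the phosphorylated peptide, bacterial display: peptide library displayed on the E. coli surface as eCPX fusions, selected cells deep-sequenced, score is each peptide's frequency after selection divided by its frequency in the input.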
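Throughout, for phosphorylation enrichment, bacterial display: 11-residue human phosphosite peptides and single-mutation variants displayed on the E. coli surface, counted by deep sequencing, each peptide's frequency after selection divided by its frequency in the unselected input library; frequency after pTyr selection over input frequency; kinase dosed for 20-30% of maximal phosphorylation in three min.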

Chain of Grb2 SH2 (P62993 whole entry, looked up): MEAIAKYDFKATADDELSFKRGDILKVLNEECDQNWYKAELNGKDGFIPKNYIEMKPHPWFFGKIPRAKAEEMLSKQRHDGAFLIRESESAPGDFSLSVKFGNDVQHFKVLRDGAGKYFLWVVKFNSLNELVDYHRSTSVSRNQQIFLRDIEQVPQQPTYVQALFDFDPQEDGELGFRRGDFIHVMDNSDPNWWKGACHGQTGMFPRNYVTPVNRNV

| Sequence | SH2 binding enrichment (SHP2-C SH2) | SH2 binding enrichment (Grb2 SH2) | SH2 binding enrichment (c-Src SH2) | phosphorylation enrichment (Fer (mouse)) | phosphorylation enrichment (Jak2) | phosphorylation enrichment (MERTK) | phosphorylation enrichment (FGFR3) | phosphorylation enrichment (Hck) | phosphorylation enrichment (Fes) | phosphorylation enrichment (c-Abl (mouse)) | phosphorylation enrichment (c-Src) | phosphorylation enrichment (AncSZ) | phosphorylation enrichment (FGFR1) | phosphorylation enrichment (EPHB1) | phosphorylation enrichment (EPHB2) | phosphorylation enrichment (Fyn) |
| --- | --- | --- | --- | --- | --- | --- | --- | --- | --- | --- | --- | --- | --- | --- | --- | --- |
| LVQAEYWRDPI [PPT1_Y185_H187R] | 1.14 | 0.818 | 0.914 | 0.693 | 1.46 | 0.614 | 1.22 | 0.423 | 1.72 | 0.816 | 0.691 | 1.55 | 1.71 | 0.891 | 0.931 | 0.961 |
| IYRASYYRKGG [ALK_Y1282] | 0.702 | 0.825 | 0.528 | 0.45 | 0.753 | 0.621 | 0.403 | 0.476 | 0.622 | 0.676 | 0.557 | 0.615 | 0.414 | 0.419 | 0.481 | 0.513 |
| VMSGPYNLKAL [IL1B_Y140_E141N] | 0.622 | 0.886 | 0.545 | 0.508 | 0.959 | 0.507 | 0.556 | 0.473 | 0.765 | 0.643 | 0.758 | 0.888 | 0.569 | 0.534 | 0.475 | 0.596 |
| KPSLKYVTFGN [GALNTL5_Y404_G401S_YF] | 0.697 | 0.68 | 0.575 | 0.461 | 0.496 | 0.435 | 0.569 | 0.488 | 0.75 | 0.467 | 0.504 | 0.736 | 0.396 | 0.453 | 0.453 | 0.515 |
| KYGTNYRVGSS [CPO_Y278] | 1.23 | 1.01 | 0.835 | 0.308 | 0.403 | 0.377 | 0.362 | 0.415 | 0.549 | 0.466 | 0.389 | 0.438 | 0.338 | 0.307 | 0.388 | 0.416 |
| FASAEYQEALS [GALNS_Y461] | 0.598 | 0.734 | 0.569 | 0.369 | 0.759 | 0.348 | 0.618 | 0.481 | 0.858 | 0.505 | 0.485 | 0.949 | 0.482 | 0.454 | 0.466 | 0.454 |
| YGLQAYTEVKT [ALDH2_Y502] | 2.38 | 0.984 | 6.95 | 0.704 | 1.06 | 0.55 | 0.842 | 0.488 | 1.29 | 0.834 | 0.439 | 1.27 | 0.59 | 0.721 | 0.67 | 0.546 |
| IMITGYLLLFR [INSR_Y87_D86G] | 1.83 | 2.37 | 0.899 | 0.593 | 1.02 | 0.668 | 0.866 | 0.57 | 1.4 | 1.13 | 0.419 | 1.19 | 0.721 | 0.521 | 0.547 | 0.63 |
| SVVVPYEQPEV [TP53_Y220_P222Q] | 0.856 | 0.962 | 3.08 | 0.568 | 1.24 | 0.544 | 0.774 | 0.612 | 1.28 | 1.03 | 0.69 | 1.37 | 0.604 | 0.652 | 0.715 | 0.532 |
| CFCSWYRGWAP [TIMP3_Y195_G190C_YF] | 1.24 | 1.17 | 1.09 | 4.11 | 1.25 | 0.556 | 1.03 | 0.887 | 1.44 | 0.933 | 4.5 | 1.28 | 1.07 | 0.859 | 0.707 | 0.647 |
| RSSPTYRDCLQ [LARGE2_Y682] | 0.964 | 0.981 | 0.448 | 0.458 | 0.667 | 0.42 | 0.522 | 0.385 | 0.858 | 0.539 | 0.369 | 1.45 | 0.523 | 0.556 | 0.472 | 0.469 |
| FGSGNYNDFGN [HNRNPA2B1_Y300_YF] | 0.408 | 0.975 | 0.683 | 0.362 | 0.726 | 0.363 | 0.505 | 0.4 | 0.995 | 0.876 | 0.419 | 0.941 | 0.378 | 1.97 | 0.544 | 0.347 |
| FSNKLHFQLEQ [PDPR_Y109_Y109H_YF] | 0.938 | 0.917 | 0.482 | 0.43 | 0.889 | 0.51 | 0.509 | 0.398 | 1.18 | 0.709 | 0.491 | 0.976 | 0.482 | 0.473 | 0.509 | 0.471 |
| RMSRSYPTGLA [ADM_Y52_S50R] | 0.548 | 0.721 | 0.425 | 0.319 | 0.42 | 0.454 | 0.459 | 0.39 | 0.594 | 0.594 | 0.377 | 0.497 | 0.36 | 0.382 | 0.349 | 0.381 |
| RHPLEYLRQFP [NARS2_Y138_YF] | 1.28 | 1.49 | 0.984 | 0.275 | 0.66 | 0.33 | 0.365 | 1.38 | 0.612 | 0.554 | 0.409 | 0.605 | 0.369 | 0.372 | 0.494 | 0.342 |
| SNTFLYQLVFD [EXO1_Y284_N279S] | 1.05 | 1.17 | 0.833 | 4.62 | 1.36 | 5.86 | 1.9 | 2.63 | 1.49 | 0.784 | 2.22 | 1.56 | 1.69 | 5.47 | 3.93 | 1.61 |
| VHNLDYYKKTT [FGFR3_Y647] | 0.556 | 0.796 | 0.389 | 0.394 | 0.469 | 0.414 | 0.771 | 0.408 | 0.624 | 0.443 | 0.371 | 0.527 | 0.369 | 0.428 | 0.474 | 0.39 |

| Sequence | SH2 binding enrichment (SHP2-C SH2) | SH2 binding enrichment (Grb2 SH2) | SH2 binding enrichment (c-Src SH2) | phosphorylation enrichment (Fer (mouse)) | phosphorylation enrichment (Jak2) | phosphorylation enrichment (MERTK) | phosphorylation enrichment (FGFR3) | phosphorylation enrichment (Hck) | phosphorylation enrichment (Fes) | phosphorylation enrichment (c-Abl (mouse)) | phosphorylation enrichment (c-Src) | phosphorylation enrichment (AncSZ) | phosphorylation enrichment (FGFR1) | phosphorylation enrichment (EPHB1) | phosphorylation enrichment (EPHB2) | phosphorylation enrichment (Fyn) |
| --- | --- | --- | --- | --- | --- | --- | --- | --- | --- | --- | --- | --- | --- | --- | --- | --- |
| EESSHCSTEKE [ADAR_Y587_Y587C] | 0.668 | 0.81 | 0.562 | 0.424 | 0.8 | 0.502 | 0.663 | 0.598 | 1.01 | 0.559 | 0.5 | 1.06 | 0.593 | 0.631 | 0.683 | 0.598 |
| PFTRNYYVRAV [CYBA_Y87] | 1.21 | 0.799 | 0.615 | 0.422 | 0.85 | 0.608 | 0.792 | 0.666 | 1.29 | 0.747 | 0.558 | 1.16 | 0.704 | 0.753 | 1.41 | 0.614 |
| WQQQSYLDSRI [CTNNB1_Y30_G34R] | 0.645 | 0.894 | 0.571 | 0.455 | 0.623 | 0.515 | 0.496 | 0.476 | 0.793 | 0.482 | 0.4 | 0.675 | 0.484 | 0.444 | 0.473 | 0.465 |
| YSMGCYEISLE [HMGCL_Y198_G203E] | 0.564 | 0.766 | 0.504 | 1.82 | 1.08 | 1.51 | 1.09 | 1.23 | 1.35 | 0.806 | 2.02 | 2.01 | 0.582 | 1.01 | 0.907 | 1.65 |
| KHMADYPDCKF [SOX11_Y113_Y116C_YF] | 0.859 | 1.18 | 0.573 | 0.495 | 0.879 | 0.456 | 0.74 | 0.475 | 1.04 | 0.703 | 0.397 | 0.92 | 0.587 | 0.532 | 0.556 | 0.423 |
| AFPVSYSSPGA [RET_Y687_S690P] | 0.679 | 0.685 | 0.615 | 0.468 | 0.508 | 0.512 | 0.466 | 0.422 | 0.616 | 0.572 | 0.475 | 0.704 | 0.423 | 0.442 | 0.478 | 0.518 |
| RASSVYTRSTG [CCR5_Y339] | 0.489 | 0.809 | 0.472 | 0.552 | 0.655 | 1.21 | 0.47 | 0.741 | 1.5 | 0.721 | 0.875 | 0.651 | 0.48 | 0.591 | 0.552 | 0.608 |
| SASWTYVRWFD [PTDSS1_Y274_P269S] | 0.938 | 0.997 | 0.638 | 0.487 | 1.22 | 0.445 | 0.854 | 0.64 | 1.26 | 0.905 | 0.626 | 1.08 | 0.677 | 0.835 | 0.766 | 0.501 |
| VQSASYLNACL [MCM3AP_Y864] | 0.694 | 1.11 | 0.555 | 0.47 | 0.674 | 0.46 | 0.551 | 0.384 | 0.813 | 0.645 | 0.495 | 0.759 | 0.381 | 0.418 | 0.473 | 0.419 |
| GLRQSYFVEAQ [APCS_Y142_G141S] | 0.726 | 0.686 | 0.681 | 0.378 | 0.596 | 0.543 | 0.697 | 0.505 | 0.825 | 0.48 | 0.453 | 0.717 | 0.612 | 0.532 | 0.491 | 0.457 |
| REEKNDKLKET [BCLAF1_Y459_Y459D] | 0.747 | 1.16 | 0.552 | 0.441 | 0.685 | 0.657 | 0.908 | 0.788 | 1.11 | 0.596 | 0.356 | 1.32 | 0.868 | 0.773 | 0.606 | 0.833 |
| NLDCFYQQVTK [SEC16A_Y1041_R1039C] | 0.845 | 1.1 | 0.947 | 2.22 | 1.15 | 0.856 | 0.786 | 1.91 | 1.31 | 0.831 | 1.31 | 1.54 | 0.934 | 1.1 | 1.08 | 0.675 |
| DLWEKYMDCGG [HAP1_Y440_R437W] | 0.617 | 0.768 | 0.55 | 0.578 | 1.12 | 0.458 | 0.854 | 0.596 | 1.42 | 0.738 | 0.436 | 1.44 | 0.6 | 0.976 | 0.775 | 0.509 |
| AEPPDYSPVTH [ADGRG2_Y285] | 0.611 | 0.836 | 0.477 | 0.764 | 0.836 | 0.491 | 0.786 | 0.598 | 1.06 | 0.792 | 0.417 | 1.66 | 0.54 | 0.817 | 0.582 | 0.542 |
| GLSSAYGGLTS [KRT8_Y427] | 0.572 | 0.876 | 0.42 | 0.422 | 0.506 | 0.341 | 0.449 | 0.545 | 0.584 | 0.543 | 0.469 | 0.516 | 0.351 | 0.555 | 0.347 | 0.513 |
| LLQKTYNFNVL [SLC4A1_Y553_P548L_YF] | 0.916 | 1.09 | 0.593 | 1.05 | 0.81 | 0.997 | 1.24 | 0.88 | 1.2 | 0.77 | 0.594 | 1.41 | 0.889 | 0.909 | 0.984 | 0.749 |
